Experiment [1] deals with HLA-A*80:01. As to the kind of experiment: IEDB peptide-MHC binding, purified MHC/direct/fluorescence; filed as Kd, often an IC50 or EC50 that approximates it; ≥ and ≤ were set here for values at or beyond the usual limits of such assays.
Experiment [2] concerns the target HLA-A*01:01. The experiment is described as above.
For experiment [3], the target named is HLA-A*24:03. Described as above. The conditions noted are these: source organism: Bacillus anthracis.
Experiment [4] deals with HLA-C*04:01. Described as above.
Experiment [5] addresses HLA-C*12:03. Described as above.
In experiment [6] the target is HLA-C*03:03. The description is as above.
The target of experiment [7] is HLA-C*14:02. As to the kind of experiment: IEDB peptide-MHC binding, purified MHC/competitive/fluorescence; filed as Kd, often an IC50 or EC50 that approximates it; ≥ and ≤ were set here for values at or beyond the usual limits of such assays.
The target of experiment [8] is HLA-B*15:42. The experiment is described as above.
The target in experiment [9] is HLA-B*45:06. The experiment is described as above.
Experiment [10] has as its target HLA-C*05:01. As to the kind of experiment: IEDB peptide-MHC binding, purified MHC/direct/fluorescence; filed as Kd, often an IC50 or EC50 that approximates it; ≥ and ≤ were set here for values at or beyond the usual limits of such assays.
Experiment [11] addresses HLA-B*27:05. The experiment can be described thus: IEDB peptide-MHC binding, purified MHC/competitive/fluorescence; filed as Kd, often an IC50 or EC50 that approximates it; ≥ and ≤ were set here for values at or beyond the usual limits of such assays.
Experiment [12] deals with HLA-A*32:15. The experiment is described as above.
Experiment [13] addresses HLA-B*83:01. Described as above.
The target in experiment [14] is HLA-A*03:19. The description is as above.
Experiment [15] deals with HLA-C*06:02. Described as above.
Experiment [16] deals with HLA-A*68:23. The experiment is described as above.
Experiment [17] deals with HLA-B*46:01. The description is as above. Particulars: source organism: Vibrio cholerae MAK 757.
The target of experiment [18] is HLA-A*26:01. The description is as above. The conditions noted are these: source organism: Yersinia pestis Nepal516.
For experiment [19], the target named is HLA-B*35:01. The experiment is described as above. The conditions noted are these: source organism: Yersinia pestis Nepal516.
For experiment [20], the target named is HLA-C*14:02. The experiment can be described thus: IEDB peptide-MHC binding, purified MHC/direct/fluorescence; filed as Kd, often an IC50 or EC50 that approximates it; ≥ and ≤ were set here for values at or beyond the usual limits of such assays.
In experiment [21] the target is HLA-C*15:02. The description is as above.
The target in experiment [22] is HLA-C*06:02. Described as above.
In experiment [23] the target is HLA-B*39:01. The experiment can be described thus: IEDB peptide-MHC binding, purified MHC/competitive/fluorescence; filed as Kd, often an IC50 or EC50 that approximates it; ≥ and ≤ were set here for values at or beyond the usual limits of such assays.
Experiment [24] concerns the target HLA-A*32:07. Described as above.
Experiment [25] has as its target HLA-A*02:01. The description is as above.
Experiment [26] has as its target HLA-A*31:01. The description is as above.
For experiment [27], the target named is HLA-B*27:20. Described as above.
Experiment [28] deals with HLA-C*07:02. As to the kind of experiment: IEDB peptide-MHC binding, purified MHC/direct/fluorescence; filed as Kd, often an IC50 or EC50 that approximates it; ≥ and ≤ were set here for values at or beyond the usual limits of such assays.
Experiment [29] addresses HLA-B*40:13. The experiment can be described thus: IEDB peptide-MHC binding, purified MHC/competitive/fluorescence; filed as Kd, often an IC50 or EC50 that approximates it; ≥ and ≤ were set here for values at or beyond the usual limits of such assays.
The target in experiment [30] is HLA-B*58:01. Described as above.
In experiment [31] the target is HLA-A*02:06. Described as above. The conditions noted are these: source organism: Brucella suis 1330.
The target in experiment [32] is HLA-C*08:02. As to the kind of experiment: IEDB peptide-MHC binding, purified MHC/direct/fluorescence; filed as Kd, often an IC50 or EC50 that approximates it; ≥ and ≤ were set here for values at or beyond the usual limits of such assays. Particulars: source organism: Yersinia pestis CO92.
Setting [33] is: source organism: Mammarenavirus lassaense.
The mark [34] stands for this setting: source organism: Mycobacterium tuberculosis F11.
[35] abbreviates: source organism: Vaccinia virus.
Where [36] appears, read: source organism: Vibrio cholerae MAK 757.
Where [37] appears, read: source organism: Camelpox virus M-96.
Where [38] appears, read: source organism: Yersinia pestis Nepal516.
Setting [39] is: source organism: Escherichia coli O157:H7 str. EDL933.
Where [40] appears, read: source organism: Brucella suis 1330.
The mark [41] stands for this setting: source organism: Yersinia pestis CO92.

Consider ALTDLGLIY, for which the Kd was found to be 1.8 nM in [1] (setting [33]) and 34.7 nM in experiment [2] (setting [33]).
For the sequence AYPKWKFFL, the Kd in experiment [3] is 1.7 nM; in experiment [4] (source organism: Bacillus anthracis str. CDC 684), at least 20000 nM.
Regarding FVAATGRPL, the Kd was 95 nM in experiment [5] (setting [34]); at most 1 nM in [6] (setting [34]); 30.2 nM in experiment [7] (setting [34]); at least 5000 nM in experiment [8] (setting [34]); at least 5000 nM in experiment [9] (setting [34]).
Take FVDVIIIKV: the Kd in experiment [4] (setting [35]) and in experiment [10] (setting [35]) was at least 20000 nM each time.
GKVERMVQY: in experiment [11] (source organism: Escherichia coli 536), the Kd was at least 20000 nM.
GVPKTHLEL: the equilibrium dissociation constant (Kd) in experiment [12] (source organism: Mus musculus) was at least 20000 nM; in experiment [8] (source organism: Mus musculus), at least 5000 nM; in [13] (source organism: Mus musculus), at least 5000 nM; in experiment [9] (source organism: Mus musculus) it was at least 5000 nM; in experiment [14] (source organism: Mus musculus) it was 3230 nM; in [15] (source organism: Mus musculus), 1350 nM. In [16] (source organism: Mus musculus), this sequence displayed a Kd of 23.1 nM.
IAAPNMIAV: the Kd in experiment [5] (setting [36]) was 2 nM; in experiment [6] (setting [36]), at most 1 nM; in experiment [10] (setting [36]) it was 2170 nM; in experiment [17], 578 nM.
For MTDLSKKGY, the Kd in experiment [1] (setting [37]) was at least 20000 nM; in [2] (setting [37]), 2.8 nM.
In the case of MVLSGTLAY, the Kd was 123 nM in experiment [7] (setting [38]); 506 nM in experiment [18]; at least 5000 nM in [8] (setting [38]); at least 5000 nM in experiment [13] (setting [38]); at least 5000 nM in experiment [9] (setting [38]); 1.2 nM in [19].
With NRDGDSYYY, the Kd in experiment [1] (source organism: Yellow fever virus) was 478 nM.
As to RAMRMVYYL, the Kd in experiment [20] (setting [38]) is 960 nM; in experiment [21] (setting [38]) it was 34 nM; in [22] (setting [38]) it was 798 nM; in experiment [10] (setting [38]), 124 nM; in [23] (setting [38]), 421 nM; in experiment [8] (setting [38]), at least 5000 nM. In addition, the Kd in [11] (setting [38]) was 157 nM; in experiment [13] (setting [38]), at least 5000 nM; in experiment [9] (setting [38]), at least 5000 nM; in [14] (setting [38]) it was 206 nM; in [24] (setting [38]), 77.6 nM; in [25] (setting [38]), 0.8 nM. For the same sequence, the figures for the Kd in experiment [26] (setting [38]) and in experiment [27] (setting [38]) were 4 nM and 14 nM, respectively.
In turn, RLDPRLAPV came in with a Kd in [6] (source organism: Mycobacterium tuberculosis variant bovis BCG str. Pasteur 1173P2) of at least 20000 nM.
Take RMMGVKYLM: the Kd in experiment [20] (setting [39]) is 2340 nM; in experiment [21] (setting [39]), 2080 nM; in experiment [28] (setting [39]), 859 nM; in experiment [29] (setting [39]) it was 3.2 nM; in experiment [23] (setting [39]), 2190 nM; in experiment [8] (setting [39]), at least 5000 nM. The Kd in experiment [13] (setting [39]) was at least 5000 nM; in [9] (setting [39]), at least 5000 nM; in experiment [14] (setting [39]), 886 nM; in [15] (setting [39]), 798 nM; in experiment [24] (setting [39]) it was 1.1 nM; in experiment [25] (setting [39]), 2 nM. The Kd in experiment [26] (setting [39]) came to 2.1 nM; in experiment [30] (setting [39]), 16.8 nM; in experiment [27] (setting [39]), 34 nM.
Consider RQNAPFEPI, for which the Kd in [29] (setting [40]) is 53.6 nM; in [8] (setting [40]), at least 5000 nM; in [13] (setting [40]) it was at least 5000 nM; in experiment [9] (setting [40]), at least 5000 nM; in [31], 1.2 nM; in experiment [24] (setting [40]), 11.9 nM. In addition, the Kd in experiment [25] (setting [40]) worked out at 83.4 nM; in experiment [27] (setting [40]) it was 1.1 nM.
Turning to SYCNGVREL, the Kd in experiment [22] (source organism: SARS-CoV1) was 133 nM; in experiment [4] (source organism: SARS-CoV1), at least 20000 nM.
As to VSLGAISFW, the Kd in experiment [30] (source organism: Influenza A virus (A/Leningrad/1954/1(H1N1))) is at most 1 nM.
As for YSFSRAYTL, the Kd in experiment [32] is at least 20000 nM; in experiment [28] (setting [41]), 347 nM; in experiment [10] (setting [41]) it was at least 20000 nM; in experiment [29] (setting [41]), 6.3 nM; in experiment [7] (setting [41]), 125 nM; in experiment [12] (setting [41]), 23.7 nM. Further, the Kd was 3.9 nM in experiment [23] (setting [41]); at least 5000 nM in experiment [8] (setting [41]); at least 5000 nM in experiment [13] (setting [41]); at least 5000 nM in experiment [9] (setting [41]); 47.8 nM in experiment [15] (setting [41]); 164 nM in experiment [24] (setting [41]). In addition, the Kd in [27] (setting [41]) stood at 31.5 nM; in experiment [16] (setting [41]) it was 9.3 nM.

One may read the Kd as the concentration at which binding is half-saturated.

The record behind these values is the Immune Epitope Database (IEDB).
